The target of data set [1] is 6H-Flag-CSB (human) (UniProt Q03468). The data set can be described thus: SEC; Superdex 200 in Buffer B (25 mM Tris-Cl pH 7.5, 10% glycerol, 0.5 mM EDTA, 500 mM KCl, 0.01% IGEPAL, 1 mM DTT), 4 °C; last step of the purification. (In general: In gel filtration, larger molecules generally elute earlier.)
Data set [2] concerns the target GST-CSB-CTD (human, UniProt Q03468 1200-1493). Put plainly: EMSA; 1 mM Mg2+; EMSA: 25 mM Tris-HCl pH 7.5, 1 mM MgCl2, 1 mM DTT, 50 ug/mL BSA, 50 mM NaCl, 15 min 37 C, 6% PAGE-TBE at 4 C; pull-down: 20 mM Tris-HCl pH 7.5, 50 mM NaCl, 2 mM MgCl2, 0.1% Tween-20, 30% glycerol, RNase 0.2 U/uL (so in the source). The following applies: protein: recombinant; tags: GST (N-term, pGEX-4T); label: 5' maleimide-IR800 on oligo 1 (RNA); blunt. On the technique in general: Mobility shift assays separate free from complexed probe on a gel.

Data set [3] concerns the target GST-CSB-AD (human, UniProt Q03468 337-509). The data set is described as above. The following applies: protein: recombinant; tags: GST (N-term, pGEX-4T-3); label: 5' maleimide-IR800 on oligo 1 (RNA); blunt.
Data set [4] addresses 6H-Flag-CSB full length (CSB-FL) (human, UniProt Q03468 1-1493). Put plainly: EMSA; 1 mM Mg2+; much higher affinity than RAD52; EMSA: 25 mM Tris-HCl pH 7.5, 1 mM MgCl2, 1 mM DTT, 50 ug/mL BSA, 50 mM NaCl, 15 min 37 C, 6% PAGE-TBE at 4 C; pull-down: 20 mM Tris-HCl pH 7.5, 50 mM NaCl, 2 mM MgCl2, 0.1% Tween-20, 30% glycerol, RNase 0.2 U/uL (so in the source). As to conditions: protein: recombinant; chain copies: 2; label: 5' maleimide-IR800 on oligo 1 (RNA); blunt.

For data set [5], the target named is T1, RAD52 (human, UniProt P43351 1-418).
T1 sequence: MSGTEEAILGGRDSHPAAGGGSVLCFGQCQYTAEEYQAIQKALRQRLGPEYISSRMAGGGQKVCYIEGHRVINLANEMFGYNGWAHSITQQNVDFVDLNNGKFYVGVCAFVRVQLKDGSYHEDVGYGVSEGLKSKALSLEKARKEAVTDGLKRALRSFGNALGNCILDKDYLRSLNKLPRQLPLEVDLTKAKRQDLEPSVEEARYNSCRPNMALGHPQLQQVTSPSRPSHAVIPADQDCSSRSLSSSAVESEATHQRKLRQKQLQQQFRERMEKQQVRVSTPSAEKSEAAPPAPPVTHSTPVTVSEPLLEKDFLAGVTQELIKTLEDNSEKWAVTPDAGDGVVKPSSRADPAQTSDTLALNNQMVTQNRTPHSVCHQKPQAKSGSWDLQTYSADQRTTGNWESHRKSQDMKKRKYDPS
Put plainly: EMSA; 1 mM Mg2+; lower affinity than CSB-FL; EMSA: 25 mM Tris-HCl pH 7.5, 1 mM MgCl2, 1 mM DTT, 50 ug/mL BSA, 50 mM NaCl, 15 min 37 C, 6% PAGE-TBE at 4 C; pull-down: 20 mM Tris-HCl pH 7.5, 50 mM NaCl, 2 mM MgCl2, 0.1% Tween-20, 30% glycerol, RNase 0.2 U/uL (so in the source). As to conditions: protein: recombinant; tags: C-terminal 6xHis; label: 5' maleimide-IR800 on oligo 1 (RNA); blunt.

For data set [6], the target named is T2, hRAD52 with a C-terminal 6x-his tag (human, UniProt P43351 1-418).
T2 construct: RAD52, human (hRAD52), from pET28b-RAD52; also called His-RAD52; RAD52 protein; source: E. coli Rosetta, purified (Affiblue, Ni-NTA); not shown: His6, C-terminal, kept
T2 sequence (looked up): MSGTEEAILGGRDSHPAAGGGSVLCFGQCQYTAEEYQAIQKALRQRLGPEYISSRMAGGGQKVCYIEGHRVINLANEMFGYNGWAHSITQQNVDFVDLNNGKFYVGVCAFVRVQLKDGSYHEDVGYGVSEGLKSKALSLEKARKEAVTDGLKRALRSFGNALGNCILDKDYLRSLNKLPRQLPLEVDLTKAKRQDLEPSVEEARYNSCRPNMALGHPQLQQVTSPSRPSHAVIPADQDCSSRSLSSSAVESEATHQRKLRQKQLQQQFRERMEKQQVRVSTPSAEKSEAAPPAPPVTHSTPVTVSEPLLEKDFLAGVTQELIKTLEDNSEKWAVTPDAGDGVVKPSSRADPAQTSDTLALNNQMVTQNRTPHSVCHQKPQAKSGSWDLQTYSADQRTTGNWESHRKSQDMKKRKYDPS
The data set can be described thus: cross-linking; 1 mM DSS, 100 mM Hepes pH 7.5, 50 mM KCl, 25 °C, 1 h; cross-linked species (>250 kDa) cut from SDS-PAGE, trypsin, mass spectrometry (pLink). The following applies: both partners purified.

Sequence of 6H-Flag-CSB full length (CSB-FL) (Q03468 whole entry): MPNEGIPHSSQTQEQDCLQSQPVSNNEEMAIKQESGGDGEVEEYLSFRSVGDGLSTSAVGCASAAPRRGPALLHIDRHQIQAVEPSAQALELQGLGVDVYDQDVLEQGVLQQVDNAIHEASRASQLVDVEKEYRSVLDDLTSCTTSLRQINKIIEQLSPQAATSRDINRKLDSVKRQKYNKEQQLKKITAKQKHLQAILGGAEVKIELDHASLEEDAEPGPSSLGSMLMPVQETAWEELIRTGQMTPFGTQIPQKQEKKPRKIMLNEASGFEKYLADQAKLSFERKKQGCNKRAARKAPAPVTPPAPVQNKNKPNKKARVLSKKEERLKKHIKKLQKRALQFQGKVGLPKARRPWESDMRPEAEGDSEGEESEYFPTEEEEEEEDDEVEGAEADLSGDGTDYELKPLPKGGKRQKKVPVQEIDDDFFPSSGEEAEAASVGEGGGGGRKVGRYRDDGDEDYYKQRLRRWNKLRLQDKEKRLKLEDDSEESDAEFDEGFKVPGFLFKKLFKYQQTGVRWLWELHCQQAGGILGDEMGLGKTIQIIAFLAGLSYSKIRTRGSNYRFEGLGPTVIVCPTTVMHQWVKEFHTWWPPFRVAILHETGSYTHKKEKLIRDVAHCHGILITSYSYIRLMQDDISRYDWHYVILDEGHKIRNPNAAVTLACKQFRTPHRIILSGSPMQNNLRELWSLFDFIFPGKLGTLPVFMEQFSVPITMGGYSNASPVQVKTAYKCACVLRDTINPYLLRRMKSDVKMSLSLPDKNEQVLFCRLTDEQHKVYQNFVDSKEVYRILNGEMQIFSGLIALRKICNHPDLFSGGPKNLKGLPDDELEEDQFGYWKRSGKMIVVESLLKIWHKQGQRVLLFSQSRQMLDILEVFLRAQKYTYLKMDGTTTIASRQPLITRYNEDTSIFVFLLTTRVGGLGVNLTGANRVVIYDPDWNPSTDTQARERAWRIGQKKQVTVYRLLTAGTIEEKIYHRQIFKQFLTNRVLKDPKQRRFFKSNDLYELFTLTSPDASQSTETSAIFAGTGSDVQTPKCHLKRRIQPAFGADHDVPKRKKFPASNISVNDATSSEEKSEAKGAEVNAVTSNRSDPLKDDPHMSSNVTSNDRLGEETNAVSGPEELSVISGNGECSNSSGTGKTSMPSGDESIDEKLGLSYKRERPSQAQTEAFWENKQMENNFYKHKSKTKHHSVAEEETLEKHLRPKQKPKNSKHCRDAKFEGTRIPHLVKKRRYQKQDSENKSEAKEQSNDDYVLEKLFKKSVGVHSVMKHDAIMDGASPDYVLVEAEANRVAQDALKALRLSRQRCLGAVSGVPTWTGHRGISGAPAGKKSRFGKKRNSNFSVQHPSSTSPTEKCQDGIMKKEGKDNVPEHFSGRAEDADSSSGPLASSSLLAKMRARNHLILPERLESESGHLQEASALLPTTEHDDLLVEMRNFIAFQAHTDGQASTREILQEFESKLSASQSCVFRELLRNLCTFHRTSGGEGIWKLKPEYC
Sequence of GST-CSB-CTD (Q03468 1200-1493): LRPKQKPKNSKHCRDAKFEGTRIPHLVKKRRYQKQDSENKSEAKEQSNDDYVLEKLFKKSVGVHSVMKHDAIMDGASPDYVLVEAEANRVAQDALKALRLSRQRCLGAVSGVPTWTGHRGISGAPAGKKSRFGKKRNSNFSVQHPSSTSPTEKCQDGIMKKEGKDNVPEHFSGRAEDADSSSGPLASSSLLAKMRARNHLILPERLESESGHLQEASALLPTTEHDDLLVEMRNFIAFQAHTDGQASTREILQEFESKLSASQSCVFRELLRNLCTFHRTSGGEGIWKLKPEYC

For orientation: stoichiometry N means a count of units in the complex or per binding partner. In turn, “6H-Flag-CSB (from UniProt Q03468 1-1493) (natural protein; other documents disagree on this pair)” showed a stoichiometry N in data set [1] of 2.

B1: DNA:RNA hybrid oligo 1/oligo 2 (DNA:RNA)
RNA: UUAAUUGGUGUGACUAAUCGAAGUUGAUACAUCGACGUUAUGGUGAUGAU
DNA: ATCATCACCATAACGTCGATGTATCAACTTCGATTAGTCACACCAATTAA
As for B1, the binding result is recorded as “binds” in data set [2], “no binding” in data set [3], “binds” in data set [4] and “binds” in data set [5].

B2: GST-CSB-AD (residues 337-509) (domain or fragment, human, UniProt Q03468 337-509, looked up)
chain: KRALQFQGKVGLPKARRPWESDMRPEAEGDSEGEESEYFPTEEEEEEEDDEVEGAEADLSGDGTDYELKPLPKGGKRQKKVPVQEIDDDFFPSSGEEAEAASVGEGGGGGRKVGRYRDDGDEDYYKQRLRRWNKLRLQDKEKRLKLEDDSEESDAEFDEGFKVPGFLFKKLFK
notes: Cockayne Syndrome Protein B (CSB), human, acidic domain residues 337-509; Inserted into pGEX-4T-3 with XhoI and NotI; also called GST-tagged human CSB-AD; purified CSB-AD; source: E. coli Rosetta 2, purified (glutathione sepharose 4B)
In the case of B2, the binding result in data set [6] is on record as “binds”.

Source of the values: publication PMC6175878, “ROS-induced R loops trigger a transcription-coupled but BRCA1/2-independent homologous recombination pathway through CSB” (Nature Communications, 2018).
